Consider nine molecules from patent US20260022175A1 (Chugai, published 2026).

The target of assay [1] is T1, Abatacept (human IgG1 constant region fused to hCTLA4) (human, UniProt P16410 38-161, biotinylated by amine coupling).
T1 construct: bought drug; also called Abatacept-Biotin; biotin-labeled abatacept
T1 sequence (looked up): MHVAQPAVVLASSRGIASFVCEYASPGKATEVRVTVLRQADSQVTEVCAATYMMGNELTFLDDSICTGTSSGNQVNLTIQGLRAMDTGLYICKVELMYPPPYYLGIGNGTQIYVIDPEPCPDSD
Description: phage ELISA.

Assay [2] concerns the target T2, human CTLA4 (human).
T2 construct: also called hCTLA4; hCTLA4-His-BAP
Kind of assay: SPR Biacore T200, 37C, antibody captured, ATP 10 uM.

The target of assay [3] is T2, human CTLA4. Described as above. The source holds these as a separate data set.
The target in assay [4] is T3, cynomolgus monkey CTLA4 (CyCTLA4-His-BAP) (cynomolgus monkey). The description is as above.
Assay [5] addresses T4, mouse CTLA4 extracellular region linked with a His-tag (mCTLA4-His) (mouse, UniProt P09793 36-161). The assay is described as above.
In assay [6] the target is T2, human CTLA4. The description is as above. This is another data set of the same source.
The target of assay [7] is T2, human CTLA4. Kind of assay: SPR Biacore T200, 37C, antibody captured, ATP 1 uM. Background: Surface plasmon resonance follows binding to a sensor surface in real time, without labels.
For assay [8], the target named is T2, human CTLA4. Kind of assay: SPR Biacore T200, 37C, antibody captured, no ATP, steady state model.
For assay [9], the target named is T2, human CTLA4. Description: SPR Biacore T200, 37C, antibody captured, ATP 1 uM. This is another data set of the same source.
The target in assay [10] is T3, cynomolgus monkey CTLA4 …. Description: SPR Biacore T200, 37C, antibody captured, ATP 1 uM.
The target in assay [11] is T4, mouse CTLA4 extracellular region linked …. Kind of assay: SPR Biacore T200, 37C, antibody captured, ATP 1 uM.
Assay [12] addresses T2, human CTLA4. Description: SPR Biacore T200, 37C, antibody captured, no ATP, steady state model. This is another data set of the same source.
Assay [13] has as its target T2, human CTLA4. Kind of assay: SPR Biacore T200, 37C, antibody captured, ATP 10 uM. This is another data set of the same source.
Assay [14] addresses T2, human CTLA4. Kind of assay: SPR Biacore T200, 37C, antibody captured, ATP 100 uM.
Assay [15] has as its target T2, human CTLA4. Kind of assay: SPR Biacore T200, 37C, antibody captured, AMP 10 uM.
For assay [16], the target named is T2, human CTLA4. Kind of assay: SPR Biacore T200, 37C, antibody captured, ADP 10 uM.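 Further: antibodies held on a Protein G CM3 chip, human CTLA4 as analyte in ACES pH 7.4 buffer, rates from a global 1:1 Langmuir fit, Kd from rates or steady state.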
The target of assay [17] is T2, human CTLA4. Description: SPR Biacore T200, 37C, antibody captured, ATP 100 uM. This is another data set of the same source.
In assay [18] the target is T3, cynomolgus monkey CTLA4 …. The assay is described as above.
The target in assay [19] is T4, mouse CTLA4 extracellular region linked …. The description is as above.
Assay [20] has as its target T5, mCTLA4-His (mouse CTLA4 extracellular region linked with a His-tag) (mouse, UniProt P09793 36-161). Kind of assay: SPR 37C, ATP 10 µM.
For assay [21], the target named is T5, mCTLA4-His (mouse CTLA4 extracellular …). Kind of assay: SPR 37C, ATP 100 µM.
The target in assay [22] is T6, hCTLA4-His-BAP (human CTLA4 extracellular region with C-terminal His-tag and BAP-tag) (human, biotin on the BAP-tag).
T6 construct: also called hCTLA4-His-Biotin
Description: SPR 37C, ATP 10 µM.

In assay [23] the target is T6, hCTLA4-His-BAP (human CTLA4 …). Description: SPR 37C, ATP 100 µM.
The target is the same in assay [24]. Kind of assay: SPR 37C, ATP 10 µM. The source holds these as a separate data set.
For assay [25] the target is unchanged. Kind of assay: SPR 37C, no ATP, steady state model.

A word on the Kd: it is a measure of binding affinity in units of concentration. Usually koff stands for the first-order rate constant of dissociation. In general, kon refers to the second-order rate constant of association.

T3 sequence (chain, as listed by the source limits assumed): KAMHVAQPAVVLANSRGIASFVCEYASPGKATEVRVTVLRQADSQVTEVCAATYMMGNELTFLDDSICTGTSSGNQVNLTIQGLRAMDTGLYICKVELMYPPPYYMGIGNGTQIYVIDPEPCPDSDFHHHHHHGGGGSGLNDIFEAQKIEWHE
T2 sequence (chain, as listed by the source limits assumed): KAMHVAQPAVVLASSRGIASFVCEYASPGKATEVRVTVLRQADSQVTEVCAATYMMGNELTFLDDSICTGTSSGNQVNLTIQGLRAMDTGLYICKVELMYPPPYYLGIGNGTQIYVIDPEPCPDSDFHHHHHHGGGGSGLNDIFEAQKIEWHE

B1: ABAM001 (antibody, human IgG1, V domains shown)
VH: EVQLVESGGDLVKPGGGLRLSCAASGFTFSSYTMHWVRQAPGKGLEWVSSISSRSRYKYYADSVKGRFTISRDNAKNSLYLQMNSLRAEDTAVYYCARFGIKNKRNWVLDYWGQGTLVTVSS
VL: QSALTQPPSASGSPGQTVTISCTGTSTDVGAYNYVSWYQQHPGKAPKLMIYQVSKRPSGVPDRFSGSKSGNTASLTVSGLQAEDEADYFCSLYTTRPQLAFGGGTKLTVL
notes: also called ABADh11-4_020
For the molecule B1, in [1], the binding result was “binds”.

B2: ABAM003 (antibody, human IgG1, V domains shown)
VH: EVQLVESGGDLVKPGGGLRLSCAASGFTFSGYTMHWVRQAPGKGLEWVSSISSRSRYASYADSVKGRFTISRDNAKNSLYLQMNSLRAEDTAVYYCARFGIKNHLNWVFDYWGQGTLVTVSS
VL: QSALTQPPSASGSPGQTVTISCTGTSSDVGDYNYVSWYQQHPGKAPKLMIYGVSKRPSGVPDRFSGSKSGNTASLTVSGLQAEDEADYFCSTVSTSHSPVFGGGTKLTVL
notes: also called ABADh12-4_014
Turning to B2, the binding result in assay [1] was “binds”.

B3: 04H1389-G1m/04L1305-k0MT (antibody, human IgG1, kappa)
heavy: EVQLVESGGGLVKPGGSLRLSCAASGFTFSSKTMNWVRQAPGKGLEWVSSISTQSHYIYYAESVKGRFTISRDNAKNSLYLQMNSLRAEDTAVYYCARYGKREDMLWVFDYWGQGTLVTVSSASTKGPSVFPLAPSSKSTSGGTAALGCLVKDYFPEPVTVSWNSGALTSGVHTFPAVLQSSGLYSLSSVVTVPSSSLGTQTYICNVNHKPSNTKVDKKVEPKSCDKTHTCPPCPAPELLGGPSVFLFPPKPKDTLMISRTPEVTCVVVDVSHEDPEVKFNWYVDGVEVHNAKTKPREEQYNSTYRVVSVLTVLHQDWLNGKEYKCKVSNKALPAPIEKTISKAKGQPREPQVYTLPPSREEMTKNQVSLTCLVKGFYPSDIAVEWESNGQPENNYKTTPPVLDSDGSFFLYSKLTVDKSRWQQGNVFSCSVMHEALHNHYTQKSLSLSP
light: DIVMTQSPLSLPVTPGEPASISCDGPSTGVGDYNYVHWYQQKPGQAPRLLIYFTSKKPSGVPDRFSGSGSGTDFTLKISRVEAEDVGVYYCQTYAAPLGPMFGQGTKLEIKRTVAAPSVFIFPPSDEQLKSGTASVVCLLNNFYPREAKVQWKVDNALQSGNSQESVTEQDSKDSTYSLSSTLTLSKADYEKHKVYACEVTHQGLSSPVTKSFNRGEC
For B3, the Kd in the assay with human CTLA4 [2] worked out at 19 nM; in the assay with human CTLA4 [3], 14 nM; in assay [4], 26 nM; in assay [5] it was 32 nM; in the assay with human CTLA4 [6], 15 nM; with human CTLA4 [7], 82 nM. For the same molecule, the Kd is 3200 nM with human CTLA4 [8]; 72 nM with human CTLA4 [9]; 140 nM in assay [10]; 210 nM in assay [11]; 2400 nM with human CTLA4 [12]; 17 nM with human CTLA4 [13]. For the same molecule, the dissociation constant (Kd) with human CTLA4 [14] worked out at 5.4 nM; with human CTLA4 [15] it was 79 nM; in the assay with human CTLA4 [16] it was 25 nM; with human CTLA4 [17] it was 4.6 nM; in [18], 12 nM; in assay [19] it was 12 nM. The off-rate (koff) in the assay with human CTLA4 [13] amounted to 0.0019 s⁻¹; with human CTLA4 [15], 0.012 s⁻¹; in the assay with human CTLA4 [16] it was 0.0038 s⁻¹. Besides, the results for the kon with human CTLA4 [13], in the assay with human CTLA4 [15] and with human CTLA4 [16] were 110000 M⁻¹ s⁻¹, 150000 M⁻¹ s⁻¹ and 160000 M⁻¹ s⁻¹, respectively.

B4: hUH02-G1d/hUL01-k0 (antibody, human IgG1, kappa, V domains shown)
VH: QVQLQESGPGLVKPSETLSLTCTVSGYSISSGYGWNWIRQPPGKGLEWIGFIYYEGSTYYNPSIKSRISITRDTSKNQFFLQVNSVTTEDTATYYCARQTGYFDYWGQGTLVTVSS
VL: DIVMTQSPDSLAVSLGERATINCKSSQSLFNSNAKTNYLNWYQQKPGQPPKLLIYYASTRHTGVPDRFSGSGSGTDFTLTISSLQAEDVAVYYCQQWYDYPYTFGAGTKVEIKR
notes: also called anti-mouse CTLA4 antibody
With B4, the Kd in [20] and in assay [21] was 110 nM each time.

B5: 04H1389-G1m/04L1086-lam1 (antibody, human IgG1, lambda, V domains shown)
VH: EVQLVESGGGLVKPGGSLRLSCAASGFTFSSKTMNWVRQAPGKGLEWVSSISTQSHYIYYAESVKGRFTISRDNAKNSLYLQMNSLRAEDTAVYYCARYGKREDMLWVFDYWGQGTLVTVSS
VL: QSALTQPPSASGSPGQTVTISCDGPSTGVGDYNYVHWYQQHPGKAPKLMIYFTSKKPSGVPDRFSGSKSGNTASLTVSGLQAEDEADYFCQTYAAPLGPMFGGGTKLTVLG
On to B5, for which, in assay [22], the “fold enhancement of binding ability against parent 04H1207-G1m/04L1086-lam1” value was roughly 10 fold.

B6: 04H1077-G1m/04L1305-k0MT (antibody, human IgG1, kappa, V domains shown)
VH: EVQLVESGGDLVKPGGGLRLSCAASGFTFSSRTMNWVRQAPGKGLEWVSSISTRSGYIYYAESVKGRFTISRDNAKNSLYLQMNSLRAEDTAVYYCARYGKREDMLWVFDYWGQGTLVTVSS
VL: DIVMTQSPLSLPVTPGEPASISCDGPSTGVGDYNYVHWYQQKPGQAPRLLIYFTSKKPSGVPDRFSGSGSGTDFTLKISRVEAEDVGVYYCQTYAAPLGPMFGQGTKLEIKR
Consider B6, for which the values for the Kd in assay [23], in assay [24] and in assay [25] were 56 nM, 360 nM and 6500 nM, respectively.

B7: 04H1077-G1m/04L1066-lam1 (antibody, human IgG1, lambda, V domains shown)
VH: EVQLVESGGDLVKPGGGLRLSCAASGFTFSSRTMNWVRQAPGKGLEWVSSISTRSGYIYYAESVKGRFTISRDNAKNSLYLQMNSLRAEDTAVYYCARYGKREDMLWVFDYWGQGTLVTVSS
VL: QSALTQPPSASGSPGQTVTISCDGPSTDVGDYNWVHWYQQHPGKAPKLMIYFTSKKPSGVPDRFSGSKSGNTASLTVSGLQAEDEADYFCSTYAAPLGPMFGGGTKLTVLG
For B7, the Kd in [23] was 48 nM; in [24] it was 280 nM; in assay [25], 6900 nM.

B8: 04H1382-G1m/04L1086-lam1 (antibody, human IgG1, lambda, V domains shown)
VH: EVQLVESGGGLVKPGGSLRLSCAASGFTFSSKTMNWVRQAPGKGLEWVSSISTQSHYIYYARSVKGRFTISRDNAKNSLYLQMNSLRAEDTAVYYCARYGKREDMLWVFDYWGQGTLVTVSS
VL: QSALTQPPSASGSPGQTVTISCDGPSTGVGDYNYVHWYQQHPGKAPKLMIYFTSKKPSGVPDRFSGSKSGNTASLTVSGLQAEDEADYFCQTYAAPLGPMFGGGTKLTVLG
Take B8: the “fold enhancement of binding ability against parent 04H1208-G1m/04L1086-lam1” value in assay [22] is roughly 10 fold.

B9: 04H1389-G1m/04L1086-lam1 (antibody, human IgG1, lambda, V domains shown)
VH: EVQLVESGGGLVKPGGSLRLSCAASGFTFSSKTMNWVRQAPGKGLEWVSSISTQSHYIYYAESVKGRFTISRDNAKNSLYLQMNSLRAEDTAVYYCARYGKREDMLWVFDYWGQGTLVTVSS
VL: QSALTQPPSASGSPGQTVTISCDGPSTGVGDYNYVHWYQQHPGKAPKLMIYFTSKKPSGVPDRFSGSKSGNTASLTVSGLQAEDEADYFCQTYAAPLGPMFGGGTKLTVLG
For B9, the Kd amounted to 43 nM with human CTLA4 [2]; 37 nM in the assay with human CTLA4 [6]; 180 nM in the assay with human CTLA4 [7]; 5100 nM with human CTLA4 [8]; 5700 nM with human CTLA4 [12]; 32 nM with human CTLA4 [13]. Also, the Kd in the assay with human CTLA4 [14] is 21 nM; in the assay with human CTLA4 [15], 130 nM; in the assay with human CTLA4 [16], 44 nM. The koff was determined as 0.0032 s⁻¹ in the assay with human CTLA4 [13], 0.018 s⁻¹ with human CTLA4 [15] and 0.0061 s⁻¹ with human CTLA4 [16]. Also, the kon amounted to 100000 M⁻¹ s⁻¹ with human CTLA4 [13], 140000 M⁻¹ s⁻¹ with human CTLA4 [15] and 140000 M⁻¹ s⁻¹ in the assay with human CTLA4 [16].
